Experimental findings from patent US20250136952A1 (WISCONSIN ALUMNI RESEARCH FOUNDATION, published 2025) are described below.

The data set deals with the molecule itself. Kind of data set: X-ray crystal structure of GmPDH1-NADP+-citrate, 1.69 A. The method, then:
Crystals of GmPDH1 M219T/N222D formed in 16% (w/v) PEG 8000, 40 mM potassium phosphate dibasic, and 20% (v/v) glycerol. All crystals were flash-frozen in liquid nitrogen with mother liquor supplemented with 25% glycerol as a cryoprotectant.
The GmPDH1 structure was solved by single-wavelength anomalous dispersion (SAD) phasing. Diffraction data collected at beamline 19ID of the Argonne National Laboratory Advanced Photon Source were indexed, integrated, and scaled using HKL3000⁴⁸. SHELX⁴⁹ was used to determine initial SeMet positions and to estimate initial phases from the peak wavelength data set. SeMet positions and parameters were refined in MLPHARE⁵⁰. Solvent flattening was performed with DM⁵¹, and ARP/wARP⁵² was used to build an initial model. Iterative rounds of manual model building and refinement were performed with COOT⁵³ and PHENIX⁵⁴, respectively. The resulting model was used for molecular replacement into the higher resolution native data set using PHASER⁵⁵. Iterative rounds of manual model building and refinement, which included translation-libration-screen (TLS) models, used COOT and PHENIX, respectively. The native GmPDH1 structure was used for molecular replacement to solve the GmPDH1 N222D and GmPDH1 M219T/N222D structures. Each mutant structure was built and refined using the same method as the wild-type enzyme. […]

B1: Glycine max (soybean) prephenate dehydrogenase GmPDH1, wild type (enzyme)
chain: MSTSSSSQSLKIGIVGFGNFGQFLAKTMIKQGHTLTATSRSDYSELCLQMGIHFFRDVSAFLTADIDVIVLCTSILSLSEVVGSMPLTSLKRPTLFVDVLSVKEHPRELLLRELPEDSDILCTHPMFGPQTAKNGWTDHTFMYDKVRIRDEVICSNFIQIFATEGCKMVQMSCEEHDRAAAKSQFITHTIGRTLGEMDIQSTPIDTKGFETLVKLKETMMRNSFDLYSGLFVYNRFARQELENLEHALHKVKETLMIQRTNGEQGHKRTES
notes: also called Gm18g02650; 18g02650; not shown: N-terminal 6x-His tag from the pET28a vector
As for B1, the binding result is recorded as “binds”.
